Data taken from the DeepSol protein solubility set.

Assay: soluble on expression in E. coli; label from the status in PepcDB or PDB records

Sequence	soluble on expression in E. coli
MLIQKAYKYRLYPTDQQAQRLRQLCGCARFVWNYALNETLSIHDAGGKIPSAFDLNKRLTGWKKLPELAFLSEGYTDNLQQKLKDLRSAWDRCFDKSLTAEKPVFKKKTKGCDSIRFVNFSKYCGLDYGRVKLPSGLGWVKFRQSRKIEGVIKNCTISQHAGHWYVSFQVELAVTDPIHASTSAIGLDAGITKLATLSDGTVFEPVNSLKKNQDKLARLQRRLARMVKFSANWKKQKAKISRFHSHIANIRRDYLHKTTTTISKNHAMIVIEDLKVSNMSKSAAGTVDQPGRNVAAKSGLNRAILDQGWAEMRRQLEYKQAWRGGDVLAINPAYTSQKCACCGHTSKNNRRTQASFICTACGYTANADVNGARNILTAGFEVMAAGQILPSVRKGRARKAA	not soluble
MGSYLSVPAYFTSRDLFRCSECQDSLTNWYYEKDGKLYCPKDYWGKFGEFCHGCSLLMTGPFMVAGEFKYHPECFACMSCKVIIEDGDAYALVQHATLYCGKCHNEVVLAPMFERLSTESVQEQLPYSVTLISMPATTEGRRGFSVSVESACSNYATTVQVKEVNRMHISPNNRNAIHPGDRILEINGTPVRTLRVEEVEDAISQTSQTLQLLIEHDPVSQRLDQLRLEARLAPHMQNAGHPHALSTLDTKENLEGTLRRRSLRRSNSISKSPGPSSPKEPLLFSRDISRSESLRCSSSYSQQIFRPCDLIHGEVLGKGFFGQAIKVTHKATGKVMVMKELIRCDEETQKTFLTEVKVMRSLDHPNVLKFIGVLYKDKKLNLLTEYIEGGTLKDFLRSMDPFPWQQKVRFAKGIASGMAYLHSMCIIHRDLNSHNCLIKLDKTVVVADFGLSRLIVEERKRAPMEKATTKKRTLRKNDRKKRYTVVGNPYWMAPEMLNGKSYDETVDIFSFGIVLCEIIGQVYADPDCLPRTLDFGLNVKLFWEKFVPTDCPPAFFPLAAICCRLEPESRAPPGAAGEGPGCADDEGPVRRQGKVTIKYDPKELRKHLNLEEWILEQLTRLYDCQEEEISELEIDVDELLDMESDDAWASRVKELLVDCYKPTEAFISGLLDKIRAMQKLSTPQKK	soluble
MSEFDFDVVVVGAGAVGLACGYALSRRGLVVAVLEEQGRIGEGVSSRNSEVIHGGLYYPTGSLKAKLCVQGRRALYAFCDAHKVPYKKCGKLVVATSEDEIARLDTIWEQALANDVEGMERLTGAQARALEPGLNAHAALLSPESGVFASHDYMLALQGEIEAAGGAVVLSTPFEGAEPLAGGGFRVRAGGAEPTDLTCRLLVTAPGLSSQAVAGRIEGYPAEQIPKAHFGKGIYFRLSGKAPFQRLIYPPPIHGALGTHYRNDMGGQAVFGPDLEYVAAPDYSVDPAKADAFAAYIRKFWPDLPADRLVPDYAGVRPKLHGPGEPQPDFQLRGVEDHGLAGLMALFGIESPGLTSSLAIGETVAERLCGASLEHHHHHH	soluble
AHHHHHHGSKPKVFITRAIPENGINMLEEEFEVEVWEEEREIPREKLLEKVKDVDALVTMLSERIDQEVFENAPRLRIVANYAVGYDNIDVEEATRRGIYVTNTPDVLTNATADHAFALLLATARHVVKGDKFVRSGEWKRKGIAWHPKWFLGYELYGKTIGIVGFGRIGQAIARRAKGFNMRILYYSRTRKSQAEKELGAEYRPLEEVLKESDFVILAVPLTKETMYMINEERLKLMKPTAILVNIARGKVVDTKALIKALKEGWIAGAGLDVFEEEPYYNEELFSLDNVVLTPHIGSATFEAREAMAELVARNLIAFKRGEIPPTLVNKEVIKIRKPGFNEQ	not soluble
MANFEDFLTLDLRIGTVTHAEEFKEARVPAIKLEIDFGELGMKQSSAQITKRYNPEDLIGQQIVAVVNFPPKRVAGFKSEVLVLGGVPEAGDVVLLQPNMELPNGTKIS	not soluble
MTDESDSTAHVSCIIPVYNDSVGIKNTLRSVVGQEYHGYDVYVVDNGSTDGSRRRVRNCAAESDDIQLLVEDEVQGSYAARKTGVQNAESDVLAFLDADETVDEDWLETALGAMQEQDVDYLGCNVELTCPEDTLVGRYNARTGFPVEEYLEDQNYAPTCALLVRRKVFEDVGPFDARLISGGDREFGDRVHDAGYEQGYAENATVYHPARTSLESLAKKNFRVGRGFCQKQRYYPERYGKPGIPPTPSGPSGGDDGDEPDASLTRLAFTLLSIAMLACRGVGYYYEFVVGEENDDIPAPTSLEHHHHHH	not soluble
MLPTRSLLPFFLAPALLASAASQAAMEALDNDSLSQVTGQAGISLRLDLRAGAARVAWVDDGGSLSLRNLVIDNGCVKAGDCPDGRGGNIPLGAAQLGLSLPIFGVEQPTLALDVTTGSGGGQQLAISLPDLATINDQLIASGLPAQRIRLRVASDLYIGDNSIGRIELRDITDLRGTIKVWGH	not soluble
MGSDKIHHHHHHMSNPLLKQICELDVFTLLVFKSIFDNGHANSAAKALNVSAPKISRCLNALRLTFNDELFYRRQQGLKPTPLAESLYVAICQFTDAVHHLEQSALQLQHSASHVELPLHIAASNGLLSFLAPQLSSPEVISELGQIRLHKWQDNSAELIHAGELDLGITQEPVETKELTITHLGSIASVYIVASKHHPLWESQFDITLEQICRHSFLCLEMKGFNARIDPLELFCQRQGLLLPSIERVIDREEWYAHLLTMQSVAFCSSIDMHTVKHMPGLKLVPLSVSELHRLHETIMPPQYFLIEKPRSHRRYNQTQCELVVRSWLTVLSSNSRVSQ	not soluble
MSLTTFIQLHLLTAYPAANLNRDDTGAPKTVVLGGATRLRVSSQSLKRAWRTSALFEQALAGHIGIRSGRIAREAATILIEKGIEEKKAIEWAAKIADYLGKAKNDKKPKDPLTNAETEQLVHISPAEFDAVKALAHQLAEEKRAPKEEDLALLRKDRMAVDIAMFGRMLANKPEFNVEAACQVAHAFGVSETIVEDDFFTAVDDLRQASEDAGAGHLGETGFGSALFYTYICIDKDLLVENLGGDEALANQTLRAFTEAALKVSPTGKQNSFASRAYASWALAEKGTEQPRSLAAAFYEPINGTRQLDVAVQRITTLRENMNTVYEQKTECASFDVMNKQGSMKDVLDFICAEGHHHHHH	soluble
LALHKVIMVGSGGVGKSALTLQFMYDEFVEDYEPTKADSYRKKVVLDGEEVQIDILDTAGLEDYAAIRDNYFRSGEGFLLVFSITEHESFTATAEFREQILRVKAEEDKIPLLVVGNKSDLEERRQVPVEEARSKAEEWGVQYVETSAKTRANVDKVFFDLMREIRTKKMSENK	soluble
SSAMGAGPDHLFNLRNNFYLGAYQTAINNSEIANLSPENAVERDCLVFRSYIALGSYQLVISEIDESAATPLQAVKLLAMYLSTPQNKESTISSLKEWLADSTIGNNDTLRLIAGIIFMHEEDYNETLKHTHAGGTMDLYALNVQIFIKMHRAEYAEKQLRVMQQIDEDHTLTQLASAWLNLAVGGSKIQEAYLIFEDFSEKYPMTCLILNGKAVCCMQMGNFDEAETLLLEALNKDAKDPETLANLVVCSLHVGKSSSRHLSQLKLSHPEHILVKRVSSAEDNFERAVQLVA	soluble
MSQARPATVLGAMEMGRRMDVTSSSASVRAFLQRGHTEIDTAFVYANGQSETILGDLGLGLGRSGCKVKIATKAAPMFGKTLKPADVRFQLETSLKRLQCPRVDLFYLHFPDHGTPIEETLQACHQLHQEGKFVELGLSNYVSWEVAEICTLCKKNGWIMPTVYQGMYNAITRQVETELFPCLRHFGLRFYAFNPLAGGLLTGRYKYQDKDGKNPESRFFGNPFSQLYMDRDWKEEHFNGIALVEKALKTTYGPTAPSMISAAVRWMYHHSQLKGTQGDAVILGMSSLEQLEQNLALVEEGPLEPAVVDAFDQAWNLVAHECPNYFR	soluble
MDFEQLKQDVIAYSKTIGIDKIGFASASPFEELKQRLIQQQQLNYQSGFEEPDIEKRTNPQLLLPGAKSIIAIALAYPSKLKNAPLSKRGERRGIFCRASWGQDYHLVLRDRLQKLEAYLIEKLPDIEVKSMVDTGELSDRAVSERAGIGWSGKNCSIITPEFGSYVYLGEMITNVPFPPDKPIEDQCGGCTKCIDICPTGALIQGGQLDSKKCIAFLTQTKGFLPEEYRDKIGNRIYGCDTCQTVCPKNKGMDFHNHPEMEPDPELVKPLLTPLLTISNRDFKEKYGIMSGSWRGKKPLQRNAILALAHFKEASAIPDLIGVMKDDPRPVLRGTAAWALGKIGGDGVGEAIEKAMEREKDEEVLHEMNRGLELLAQKKE	not soluble
MGSDKIHHHHHHMSNQKIIRLSPNPQDFGHDCDDLDPQMFASELPVQHTHVYYEDDNLGLYIGVWDTSTMVEAAAPSPCDEFMYLLEGEVEIKNSKTGTMEKVQAGEAFVIPKGYDCQWHQTGYLRKFFVISEHPKEDIPTTPVVEGIIKLKVNNSSQMAIEDSTGVEIEPTNTPFVIKGKEPAQKHLPSYKDHTGKFIAGTWHSEAFNSEMQPFPRNEFIYLQSGSLVITEQEGDEQVFTAGDAFFVPQGALCSWRSIGDVHTFYAILQSS	not soluble
MHEWALADAIVRTVLDYAQKEGASRVKAVKVVLGELQDVGEDIVKFAMEELFRGTIAEGAEIIFEEEEAVFKCRNCGHVWKLKEVKDKLDERIREDIHFIPEVVHAFLSCPKCGSHDFEVVKGRGVYISGIMIEKEGEELEHHHHHH	soluble
MGNMFGSSLASLFFLWATIQQIFPNHLKIAIKEFFLSTIQQISFAKRFSDKFINFFSPYVQINFSEYEDYRVNHAFDPIETYLGAKATDKAKHLRASQVRESKGLVLKRDETKVRDEYEGIRVWWEMETDSAGYKTLKLTFHRRSRDIVTNSYIKYVVEEGKSIDAKNKKMKLFTNNPSSHWGSSKTSFWRYIDFEHPATFETLAMDPKKKEQILNDLAAFNNGKDYYKKIGKAWKRGYLLYGPPGTGKSTMIAAMANLLNYSIYDLELTAIQNNSELRKILTATSNKSIIVIEDIDCSLDLTGKRKKKESNLMIWRKDGDQDNEENKSFVTLSGLLNFIDGIWSACGQERIIVFTTNHLAKLDPALIRRGRMDMHIELSYCTFEAFKTLAKNYLDLDSHPLFSKIESLMKETNIAPADVAENLMKKNRETDADGSLNDLIESLERKKKVQIAQVDEHKEYSNKIVEAFRKLF	soluble
MATHKLSFFEKLANTFGALYRHQAQQFPRRLAILKAVGKHELAPPRSADIPAIKADWAKLQKFIETKQYVNLSIKESLVYSAVALEVVFWFFVGEMIGRRYIFGYIVPANYVSKDTKAKVAEKKRLAALEA	not soluble
MAHHHHHHMQQSSLVRRNVFHYTTVLTACTRAGQMDAAMMVFRQMKANKVKPNVYTYTTLINGCANAEKLDLALRIFAEMRLVEVPPNVKTMTALISVCSRCGQWKKGFQVLDQCEDLFIAPNALTYTAAMDGCRRAGVCTPAIALLEARMTDPSQVRPNEVTYNTVLGACAAAKDHKAALRVYARMVADGYEPIEYTRELLREVFRGTSLDGLADKLMVRVRTSKWEAYVPDSDPATALRAAQEGG	not soluble
MRGSHHHHHHGSMTRSALVTGITGQDGAYLAKLLLEKGYRVHGLVARRSSDTRWRLRELGIEGDIQYEDGDMADACSVQRAVIKAQPQEVYNLAAQSFVGASWNQPVTTGVVDGLGVTHLLEAIRQFSPETRFYQASTSEMFGLIQAERQDENTPFYPRSPYGVAKLYGHWITVNYRESFGLHASSGILFNHESPLRGIEFVTRKVTDAVARIKLGKQQELRLGNVDAKRDWGFAGDYVEAMWLMLQQDKADDYVVATGVTTTVRDMCQIAFEHVGLDYRDFLKIDPAFFRPAEVDVLLGNPAKAQRVLGWKPRTSLDELIRMMVEADLRRVSRE	soluble
